# In patent publication US20240108738A1 (Bicycle, published 2024):
# Numbered stars: 1 amine (or outer) side, 2 acyl side, 3 side chain; on linkers, the order of the positions; unused ones are H or OH. Bridge positions count the residues as written; N and C are the ends. Square brackets hold non-standard residues; d marks the D form. Ends that are not written are not given here. 4MeOPhe = 4-methoxy-phenylalanine, COc1ccc(C[C@H](N[*:1])C(=O)[*:2])cc1; TATA = O=C(CC[*:1])N1CN(C(=O)CC[*:2])CN(C(=O)CC[*:3])C1; Phe(4-CF3) = N[C@@H](Cc1ccc(C(F)(F)F)cc1)C(=O)O; Phe(4-CONH2) = NC(=O)c1ccc(C[C@H](N)C(=O)O)cc1; Phe(4-CN) = N#Cc1ccc(C[C@H](N)C(=O)O)cc1; Phe(4-Cl) = N[C@@H](Cc1ccc(Cl)cc1)C(=O)O; Phe(4-F) = N[C@@H](Cc1ccc(F)cc1)C(=O)O; Ala(cPent) = N[C@@H](CC1CCCC1)C(=O)O; tBuAla = CC(C)(C)C[C@H](N)C(=O)O; Cba = N[C@@H](CC1CCC1)C(=O)O
# B1: BCY15639 (peptide)
# peptide: ACY[Cba]PDYLCGDEYCA-NH2
# modifications: linker 2-9-14 via TATA; N-terminus assumed
# SMILES: CC(C)C[C@@H]1NC(=O)[C@H](Cc2ccc(O)cc2)NC(=O)[C@H](CC(=O)O)NC(=O)[C@@H]2CCCN2C(=O)[C@H](CC2CCC2)NC(=O)[C@H](Cc2ccc(O)cc2)NC(=O)[C@@H](NC(=O)[C@H](C)N)CSCCC(=O)N2CN3CN(C2)C(=O)CCSC[C@@H](C(=O)N[C@@H](C)C(N)=O)NC(=O)[C@H](Cc2ccc(O)cc2)NC(=O)[C@H](CCC(=O)O)NC(=O)[C@H](CC(=O)O)NC(=O)CNC(=O)[C@H](CSCCC3=O)NC1=O
# notes: scaffold TATA
# B2: BCY16136 (peptide)
# peptide: ACYLPD[4MeOPhe]LCGDEYCA-NH2
# modifications: linker 2-9-14 via TATA; N-terminus assumed
# SMILES: COc1ccc(C[C@@H]2NC(=O)[C@H](CC(=O)O)NC(=O)[C@@H]3CCCN3C(=O)[C@H](CC(C)C)NC(=O)[C@H](Cc3ccc(O)cc3)NC(=O)[C@@H](NC(=O)[C@H](C)N)CSCCC(=O)N3CN4CN(C3)C(=O)CCSC[C@@H](C(=O)N[C@@H](C)C(N)=O)NC(=O)[C@H](Cc3ccc(O)cc3)NC(=O)[C@H](CCC(=O)O)NC(=O)[C@H](CC(=O)O)NC(=O)CNC(=O)[C@H](CSCCC4=O)NC(=O)[C@H](CC(C)C)NC2=O)cc1
# notes: scaffold TATA
# B3: BCY16135 (peptide)
# peptide: ACYLPD[Phe(4-F)]LCGDEYCA-NH2
# modifications: linker 2-9-14 via TATA; N-terminus assumed
# SMILES: CC(C)C[C@@H]1NC(=O)[C@H](Cc2ccc(F)cc2)NC(=O)[C@H](CC(=O)O)NC(=O)[C@@H]2CCCN2C(=O)[C@H](CC(C)C)NC(=O)[C@H](Cc2ccc(O)cc2)NC(=O)[C@@H](NC(=O)[C@H](C)N)CSCCC(=O)N2CN3CN(C2)C(=O)CCSC[C@@H](C(=O)N[C@@H](C)C(N)=O)NC(=O)[C@H](Cc2ccc(O)cc2)NC(=O)[C@H](CCC(=O)O)NC(=O)[C@H](CC(=O)O)NC(=O)CNC(=O)[C@H](CSCCC3=O)NC1=O
# notes: scaffold TATA
# B4: BCY16144 (peptide)
# peptide: ACYLPD[Phe(4-Cl)]LCGDEYCA-NH2
# modifications: linker 2-9-14 via TATA; N-terminus assumed
# SMILES: CC(C)C[C@@H]1NC(=O)[C@H](Cc2ccc(Cl)cc2)NC(=O)[C@H](CC(=O)O)NC(=O)[C@@H]2CCCN2C(=O)[C@H](CC(C)C)NC(=O)[C@H](Cc2ccc(O)cc2)NC(=O)[C@@H](NC(=O)[C@H](C)N)CSCCC(=O)N2CN3CN(C2)C(=O)CCSC[C@@H](C(=O)N[C@@H](C)C(N)=O)NC(=O)[C@H](Cc2ccc(O)cc2)NC(=O)[C@H](CCC(=O)O)NC(=O)[C@H](CC(=O)O)NC(=O)CNC(=O)[C@H](CSCCC3=O)NC1=O
# notes: scaffold TATA
# B5: BCY15650 (peptide)
# peptide: ACYLPDYLC[dA]DEYCA-NH2
# modifications: linker 2-9-14 via TATA; N-terminus assumed
# SMILES: CC(C)C[C@@H]1NC(=O)[C@H](Cc2ccc(O)cc2)NC(=O)[C@H](CC(=O)O)NC(=O)[C@@H]2CCCN2C(=O)[C@H](CC(C)C)NC(=O)[C@H](Cc2ccc(O)cc2)NC(=O)[C@@H](NC(=O)[C@H](C)N)CSCCC(=O)N2CN3CN(C2)C(=O)CCSC[C@H](NC1=O)C(=O)N[C@H](C)C(=O)N[C@@H](CC(=O)O)C(=O)N[C@@H](CCC(=O)O)C(=O)N[C@@H](Cc1ccc(O)cc1)C(=O)N[C@H](C(=O)N[C@@H](C)C(N)=O)CSCCC3=O
# notes: scaffold TATA
# B6: BCY15648 (peptide)
# peptide: ACYLPDW[tBuAla]CGDEYCA-NH2
# modifications: linker 2-9-14 via TATA; N-terminus assumed
# SMILES: CC(C)C[C@@H]1NC(=O)[C@H](Cc2ccc(O)cc2)NC(=O)[C@@H](NC(=O)[C@H](C)N)CSCCC(=O)N2CN3CN(C2)C(=O)CCSC[C@@H](C(=O)N[C@@H](C)C(N)=O)NC(=O)[C@H](Cc2ccc(O)cc2)NC(=O)[C@H](CCC(=O)O)NC(=O)[C@H](CC(=O)O)NC(=O)CNC(=O)[C@H](CSCCC3=O)NC(=O)[C@H](CC(C)(C)C)NC(=O)[C@H](Cc2c[nH]c3ccccc23)NC(=O)[C@H](CC(=O)O)NC(=O)[C@@H]2CCCN2C1=O
# notes: scaffold TATA
# B7: BCY16140 (peptide)
# peptide: ACYLPD[Phe(4-CONH2)]LCGDEYCA-NH2
# modifications: linker 2-9-14 via TATA; N-terminus assumed
# SMILES: CC(C)C[C@@H]1NC(=O)[C@H](Cc2ccc(C(N)=O)cc2)NC(=O)[C@H](CC(=O)O)NC(=O)[C@@H]2CCCN2C(=O)[C@H](CC(C)C)NC(=O)[C@H](Cc2ccc(O)cc2)NC(=O)[C@@H](NC(=O)[C@H](C)N)CSCCC(=O)N2CN3CN(C2)C(=O)CCSC[C@@H](C(=O)N[C@@H](C)C(N)=O)NC(=O)[C@H](Cc2ccc(O)cc2)NC(=O)[C@H](CCC(=O)O)NC(=O)[C@H](CC(=O)O)NC(=O)CNC(=O)[C@H](CSCCC3=O)NC1=O
# notes: scaffold TATA
# B8: BCY16143 (peptide)
# peptide: ACYLPD[Phe(4-CN)]LCGDEYCA-NH2
# modifications: linker 2-9-14 via TATA; N-terminus assumed
# SMILES: CC(C)C[C@@H]1NC(=O)[C@H](Cc2ccc(C#N)cc2)NC(=O)[C@H](CC(=O)O)NC(=O)[C@@H]2CCCN2C(=O)[C@H](CC(C)C)NC(=O)[C@H](Cc2ccc(O)cc2)NC(=O)[C@@H](NC(=O)[C@H](C)N)CSCCC(=O)N2CN3CN(C2)C(=O)CCSC[C@@H](C(=O)N[C@@H](C)C(N)=O)NC(=O)[C@H](Cc2ccc(O)cc2)NC(=O)[C@H](CCC(=O)O)NC(=O)[C@H](CC(=O)O)NC(=O)CNC(=O)[C@H](CSCCC3=O)NC1=O
# notes: scaffold TATA
# B9: BCY16132 (peptide)
# peptide: ACY[Cba]PDYLC[dA]DEYCA-NH2
# modifications: linker 2-9-14 via TATA; N-terminus assumed
# SMILES: CC(C)C[C@@H]1NC(=O)[C@H](Cc2ccc(O)cc2)NC(=O)[C@H](CC(=O)O)NC(=O)[C@@H]2CCCN2C(=O)[C@H](CC2CCC2)NC(=O)[C@H](Cc2ccc(O)cc2)NC(=O)[C@@H](NC(=O)[C@H](C)N)CSCCC(=O)N2CN3CN(C2)C(=O)CCSC[C@H](NC1=O)C(=O)N[C@H](C)C(=O)N[C@@H](CC(=O)O)C(=O)N[C@@H](CCC(=O)O)C(=O)N[C@@H](Cc1ccc(O)cc1)C(=O)N[C@H](C(=O)N[C@@H](C)C(N)=O)CSCCC3=O
# notes: scaffold TATA
# B10: BCY16134 (peptide)
# peptide: [dA]CYLPDYLCGDEYC-NH2
# modifications: linker 2-9-14 via TATA; N-terminus assumed
# SMILES: CC(C)C[C@@H]1NC(=O)[C@H](Cc2ccc(O)cc2)NC(=O)[C@H](CC(=O)O)NC(=O)[C@@H]2CCCN2C(=O)[C@H](CC(C)C)NC(=O)[C@H](Cc2ccc(O)cc2)NC(=O)[C@@H](NC(=O)[C@@H](C)N)CSCCC(=O)N2CN3CN(C2)C(=O)CCSC[C@H](NC1=O)C(=O)NCC(=O)N[C@@H](CC(=O)O)C(=O)N[C@@H](CCC(=O)O)C(=O)N[C@@H](Cc1ccc(O)cc1)C(=O)N[C@H](C(N)=O)CSCCC3=O
# notes: scaffold TATA
# B11: BCY16142 (peptide)
# peptide: ACYLPD[Phe(4-CF3)]LCGDEYCA-NH2
# modifications: linker 2-9-14 via TATA; N-terminus assumed
# SMILES: CC(C)C[C@@H]1NC(=O)[C@H](Cc2ccc(C(F)(F)F)cc2)NC(=O)[C@H](CC(=O)O)NC(=O)[C@@H]2CCCN2C(=O)[C@H](CC(C)C)NC(=O)[C@H](Cc2ccc(O)cc2)NC(=O)[C@@H](NC(=O)[C@H](C)N)CSCCC(=O)N2CN3CN(C2)C(=O)CCSC[C@@H](C(=O)N[C@@H](C)C(N)=O)NC(=O)[C@H](Cc2ccc(O)cc2)NC(=O)[C@H](CCC(=O)O)NC(=O)[C@H](CC(=O)O)NC(=O)CNC(=O)[C@H](CSCCC3=O)NC1=O
# notes: scaffold TATA
# Assays:
# [1] = molecular target: T1, Human NKp46 Fc tag (Acro Biosystems, NC1-H5257) (human, UniProt O76036 22-255); test: SPR Method 1 and/or 2
# T1 construct: bought; also called Fc-tagged human NKp46
# In short: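 Fc-tagged human NKp46 captured on anti-human IgG surface (500–1000 RU); compounds run in PBS-P+ with 2% DMSO at 25 °C, 50 μL/min, 60 s association, 400 s dissociation. Double-referenced, DMSO-corrected; KD from steady-state 1:1 fit, kinetic constants from kinetic 1:1 fit where appropriate.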
# [2] = molecular target: T2, Human NKp46 His tag (Acro Biosystems, NC1-H52H4) (human, UniProt O76036 22-255); test: FP competition vs BCY15035
# T2 construct: bought; also called human NKp46-his tagged protein
# Protocol: The untagged competitor peptides were diluted in assay buffer 25 mM HEPES, 100 mM NaCl, 0.01% P20, pH 7.4. to a top concentration of 5000 nM and diluted 2-fold in 11 steps. The human NKp46-his tagged protein (AcroBiosystems) was diluted to 40 nM final concentration in the assay. […] The total volume of 25 μL was prepared in black walled and flat-bottomed low binding low volume 384 well plates. Measurements were performed using Envision (PerkinElmer) equipped with the excitation filter FITC FP 480, emission filter FITC FP P-pol 535 and 2nd emission filter FITC FP S-pol 535 and set to 30 flashes. The gain was set in a well containing tracer alone without target protein.
# T1 sequence (O76036 22-255 limits assumed): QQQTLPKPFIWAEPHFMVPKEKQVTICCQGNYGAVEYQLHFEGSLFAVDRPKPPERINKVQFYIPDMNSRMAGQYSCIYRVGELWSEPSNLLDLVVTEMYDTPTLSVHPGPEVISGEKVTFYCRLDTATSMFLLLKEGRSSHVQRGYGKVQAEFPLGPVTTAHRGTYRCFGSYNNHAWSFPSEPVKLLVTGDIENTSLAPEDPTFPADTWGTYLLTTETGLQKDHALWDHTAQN
# T2 sequence (O76036 22-255 limits assumed): as above
Binder,Kd [1],Ki [2]
"Ac-CY[Cba]PDYLC[dA]DEYC-NH2 (linker 1-8-13 via TATA, scaffold TATA) [BCY16133]",4.9 nM,10 nM
B1,11 nM,17 nM
"ACY[Ala(cPent)]PDYLCGDEYCA-NH2 (linker 2-9-14 via TATA, scaffold TATA) [BCY16130]",–,321 nM
B2,–,269 nM
B3,–,639 nM
B4,–,718 nM
"ACYLPDWLCGDEYCA-NH2 (linker 2-9-14 via TATA; also: scaffold TATA, TATB or TBMT, scaffold TATA) [BCY14455]",230 nM,282 nM
"ACYLPAYLCGDEYCA-NH2 (linker 2-9-14 via TATA; also: cyclised with TATA, TATB or TBMT, scaffold TATA) [BCY15656]",34 nM,39 nM
B5,10 nM,16 nM
B6,–,1620 nM
B7,–,122 nM
"ACYLPDW[Cba]CGDEYCA-NH2 (linker 2-9-14 via TATA, scaffold TATA) [BCY15649]",–,391 nM
B8,–,464 nM
B9,3.9 nM,8 nM
B10,–,77 nM
B11,–,317 nM
